In the NTF2 design screens of Basanta et al. (2020) one finds protease stability score data, which are given here for 34 sequences.

This series in a line: protease stability score; higher = more stable; yeast display proteolysis, trypsin and chymotrypsin.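 Note: log10 excess protease needed over predicted unfolded state with 0 meaning unfolded.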
“DEDQLKVALKAIRAQNNNNPDELLKLLDENVRLQYGDKTVHGREEVKEMIKHWLSHWRWKIDVRRYSVHNGVARIEALVTINVNGKPQTFTVVIHVRAENGRIKEMHYHFDEEDQEKIRS” yielded a protease stability score of 1.37.
Under “DEDQLRNIAHKLNEVWQNGDPDEMKKLLDPNVKFRYGDKTVQGMNEYVTILREMVKRIDHAHVRDFTAHNGRIDIDIQFDVNGRTVSAKVSYVVDNGKVKRAKFDPKNMKKLQS” stands 0.036; under “DEDQMAETLFDEIRKIWETGSEEDAKKMMDPNAHVHVGDKEVTGREEIAKRLHDEAKKADHINLTLEDVEVKGDKAQLHVRFQLHVNGKRDERRIVFVFRNHNGRLIMVTASDS”, 1.44.
Regarding “DEDQMEDLKRKWEKNDWRRFARNADPNVRVEVGDRRYHGRTDALRAMKIIEDTADRIQIDRVKSTNGKVTVDLVLVVNGNKIRARFEAVVHNGQVKHFTMKFRDKDDKRRFNEAMS”, the protease stability score amounted to 0.582.
“DEDQNRKMEHALRKNDWTRLAEQADKDVKVHIGDKVLHGREEVLKYLKRFQENVDHIEIKRMEATGNKVTVEYDVNFDGTTLDVTFKMVVQNGTVEHMTFDFRSEEQEHEAKKAYG” had a protease stability score of 0.627.
On to “DEDQNTVFEEVKKAIRTGDEEMLKTLMDPNVRLEYGDTEIHGREEAVRQISTRHNQLHVDEQIKDIKAHNGKVDVDFEVHRSHNGDPQHRRASARADVSNGSVKELVVKYDK”, for which the protease stability score was 0.014.
In turn, “DEDQQKEVEKMLQDRRTNNPERIRKMFDPNARVQVGDKTINGREDAKRYAEEERDQIRVEYKSINISVHNGRVQVDVRARFNHNGKPETRQFNLDASIHNGRIKEFQQRDDK” displayed a protease stability score of -0.163.
“DEDQQRKWEDWERHLRQNNEEKLVEMFDPNAKWVIGDKRWHGMEEAASKLATRVKNLHIEIRSMRVKVDGDTVEIDVLVTYTHNGQPSEKREILYIHAHNGEVKKVHFEDRE” registered a protease stability score of 0.412.
Sequence “DEDQRRKLEDLLRAYRTGDEKRIVEMADPNVEMHVGDHEVHGMEKIARKQVRTNQEARVDYEDWRLDFQGDKVNFEFDLRRDHNGEPETHKVDMTIVFKNGRIKSQSVRNTK” yielded a protease stability score of -0.135.
Under “DEDQVEVMRELWRAYEDGADDQLKKLVDPNARFEVGDKHIEGREEYARDMQRQRKEIRVHYREISIENREGRLHIDYIYQRTHNGQPQTVRQVVEVDIKNGVVQRQRVQDVS” stands 0.474; under “DEDQVLKVIEKALKAIQQGHREEAKKLGKPNVEVQAADQRDKGPDALLKMVEQVQKVGDKFEYKETRKKGGTVTTRVEVTFGGKTVEYEVNVQAEGGKVQKWEVRIDDDFIEQVKKS”, 0.671; under “DEDQVQRVREMIKAWQHNDPEKLMQQVDPNVKARVGDKTLQGREQMSKDLDRRRKEARFVIRVQEVDKRENRVQVNVKMKVNHNGHPHSFSFILNVEVHGDHIHTIHIERDK”, 0.356.
As to “DEDQVRQANDNVIKAMKNGDPRKFKELFDPNARANYGDKEIHGMHTAMQRLVELLQQVDHIRIKDIKVENGHVHVDLVLEVNGRSVRFTITFRQSNGKVEELRMDPEDQKTLRR”, the protease stability score is -0.186.
Under “DEDQVRRIIQDLRRNNFEKMVELMDEDVKIDVGNYDYHGREAAHEILDRIRRQIDHIEYKSVTAQGDKIDVKAVAIINGKEWTFRVEVDADNGRIHSMKIRFRSEKEEQDYQKEVQ” stands 1.11; under “DEDQVRRVADKMFKMAVNGNKDEMKKLGKPNVEYKYLDKEYEGPDALKRVADKVKKIGAKVETQRREVKGDKVTAVFRYNDGDHTVQTTAEVQYEGDVVDRARVEITDEVKKVAHKG”, -0.093.
In turn, “DEDRAKSFMQAVVDNDPDKILKMMDENVRIEYGNKEIHGHEDLRKFWDKLKDQVDHYQVDRYSIHNGTVNVDAQMVVNGVRVRFTIVAELRNGKVTSVKYRVTNPRQERQLDELWG” displayed a protease stability score of 1.23.
Sequence “DEDRARRLMEKMFKIILNGNDEEARKMGAPDVEYQYADKTFHGEEAMKYIVKVVKRVGVKVRQEKHEVHGDTATAHFQYENGDTTVETQAHVQYEGDKAKKVEVKNSDEVRKLVDQG” registered a protease stability score of 0.228.
As to “DEDREAKKNLENMQKVLEKGDPDKMSELVDEDVRFVVGDKTFQGREDVRRRMETNVKRVDHIEVQIKHYEVKNGRARADAVFRVEVNGKETTRKFDVQVKVENGRFRVEQIRYK”, the protease stability score was 0.265.
Under “DEDREKEVVDILRDGNPDDAREMADENVTVRVGNKVIHGREEYHRFIKRMQDQADHRHIDSVHHRPGRVRIQFRAVVDGQKFSAQMTVKVENGRVKSAQLDATDESVKKILEHIFG” stands 1.16; under “DEDREKRFAKHVADVLRTGDSDRLQELADENVRMRIGDKTYKGRENFTKALEELRNRVDHIDIKSVKVHNGRISIDFVMRHNGREQTAVLIMHIHNGRIESQEVHSK”, 0.618; under “DEDREQEMLEKMVQIWEEGDEEKMVRLADPNVTVRVGDKNVHGRKHLREELQKERKQVDHFYVRHITIHNGTVNLDVEYNHNGQREQATVIAKVHDGRIKELSVHSS”, -0.204.
The same measure for “DEDRKAREFIHDEQRAFEQNNPDDIVRLADPNVRVNIGEHDVRGHEDFKKWVDELLEKYDQINFKVTSVSVRGDHIEATVMIQNQKNGEDDTHVVLITLKDHNGRLLIEMIQER”: 0.315; for “DEDRLRELVKKFVDAMRTNDEDRIREMMDKDVRVEVGDTVIKGHNEAKKWAKRLRERADHIHFDSVHVQGDRAEVDFQVRHNGKTDRNVLVLRMNNGRVQELRVHTK”: 1.81.
The sequence “DEDRLREQATNFIEAMQTGDTKRVDEQIDKDAQLVVGEKKYEGREQISTFVKEMHHQFDHVRLQRVTVSGNKVLLDVVMDFNGKDLRINIVIHMNNGKISQVQVDYTNPEDAKTARG” displayed a protease stability score of 0.587.
As for “DEDRMKRLVRIFEHGDEDKLRKQADENATLKVGNHEIHGREEVQTFAQILKERVDHFHVRRVDLKGNSITALVRATVNGQSVEFKVIIVVQNGRIKKITIHATSEEQMKQLDKLFS”, the protease stability score came to 0.959.
The same measure for “DEDRMRELMKVMMDAVRNGNQEQAYKVMDEGGEFHVGDKTVRGPEQVKEYVKEVQDWGNHVEYKETHYEGDTATVKTQAHLGDVTVDFEVHYVVKGNKLKRFEVRFNKEQIKEFKKS”: 0.593; for “DEDRMRKLLEQFLTALLQGDPEKMMELADEDVRMTYGDKEYHGREQVRDWAKDYRDKVDHASVHSYEVHGDKAQAIVVANVNGRTLSYTVVVRFQDGRAKHIKFESS”: 2.23.
Consider “DEDRMTEAEKILKENNPDQMRDLFDENAKAEIGDNDLHGREHIVEEQRRYNEKVDHVQYHSVTFSNGKMRFDVRASVNGKKFRFQAEFHLDNGKIKHIKIDFRDEEDEKEFKRVVG”, for which the protease stability score was found to be 0.66.
Sequence “DEDRQQTLADELVKALEKGDFEKIEKLADPNVRVEIGDRHVRGREQASKELKKYTDRVDEVRIDSLEVQGEKVSADFRFNVDGHTIRLTAEITFHNGRIKMMRFHFTNEDQERRYKS” came in with a protease stability score of 1.02.
In turn, “DEDRRAKELAERLDEALRTGDEERLQRLFDKDVRFDIGDKTIHGRTEAARQMVTHANRADHVHMKVTDLKRHGSRIVVVVHFRQNINGKKDSRDVKIEVKLEGDRIKVVRATYR” gave a protease stability score of 0.888.
The sequence “DEDRRAREWVETMQDIVENNNERDMKKLFDPNARVSVGDREYHGEDEIAHVLQREMENADNIHIEVKSIIVHGDKVTVDLTVSVQVNGKTETDRVRMVLKDKDGRIQVVSVQQT” gave a protease stability score of 0.597.
“DEDRTRRMLEKVFEYVVKGDVDHVRKHGKPNVRYEYADKKKEGEEVYKLIVKIVKKVGAEAKRREQEVKGDTMRANFQYNKGDKTVQTTAEAQYEGDKADKLRAELTDEVKKVVHQG” returned a protease stability score of -0.152.
The sequence “DEDRVRKVAKEVFEMLKKGDVDKLKELGKEDVVFQFGDERVKGVEEYRRIMKEMQDQGVQHEVKKAQVKDDTAKMVTVVTYGNKDVQLTAEATYEGGRLKEARVENTEEYKKIAKKS” came in with a protease stability score of -0.084.
In turn, “DEDRVRRHLEKAFKVIQNGNEEEAKKIGAPDVEYHYADKELEGEEAVIVAVRIVKKIGAEVKTQEEEVKGNEMRATFQYKKGDTTVQTKATVVYEGDKLKKARVELSDEVKKIIHQG” yielded a protease stability score of -0.111.
